# Measurements published in patent US6358897B1, “Alkyl trypsin compositions and methods of use in contact lens cleaning and disinfecting systems” (Alcon Laboratories, Inc., priority 1996, dated 2002).
# Legend:
# azocasein [1] = assay: Stability of Me-trypsin, trypsin and pancreatin in a disinfecting composition (Example 5C), azocasein method; assay type: physicochemical; settings: for % Activity Remaining: Example 5C composition, 50 μg/ml (pancreatin 375 μg/ml)
# Procedure: Azocasein Method The following solutions are used in this assay: 1) Buffer solution: 0.05 M sodium phosphate buffer containing 0.9% sodium chloride, pH 7.6. 2) Substrate solution: 2 mg/ml azocasein in the buffer solution mentioned above. The assay is initiated by mixing 1 ml of an appropriately diluted (such that the enzyme activity is in the range of standard curve) enzyme composition in phosphate buffer with 2 ml of azocasein substrate solution (2 mg/ml). After incubation at 37° C. for 20 minutes, the mixture is removed from the incubator and 1 ml of trichloroacetic acid to (14% w/v) is added to stop the enzyme reaction. The mixture is vortexed well and allowed to stand at room temperature for 20 minutes. After centrifuging at 2500 rpm (with a Beckman GS-6R Centrifuge) for 15 minutes, the supernatant is filtered with a serum sampler. 2 ml of the clear yellow filtrate is then adjusted to a neutral pH with 2 ml of 0.5 N sodium hydroxide and the absorbance of 440 nm wavelength light is measured with a spectrophotometer. The amount of azocasein hydrolyzed is calculated based on a standard curve of known concentrations of azocasein solution developed under identical conditions. An enzyme activity unit (“AZ U”) is defined as that amount of enzyme which hydrolyzes 1 μg of azocasein substrate/minute at 37° C. The following is an example of the stability of Me-trypsin in a disinfecting composition of the present invention as compared to analogous compositions containing trypsin or pancreatin. The enzymes were solubilized in the Example 5C composition. The compositions were stored at room temperature or 30° C. for up to 42 days. At various time points, enzyme activity was assayed using the azocasein method.
# azocasein [2] = assay: Enzyme stability of the Example 6 multi-purpose composition versus trypsin or pancreatin compositions, azocasein method; assay type: physicochemical; settings: Me-trypsin: Example 6 composition, trypsin/pancreatin: 1.4 mL of Example 3B analog in 120 mL of Example 2B
# Procedure: Azocasein Method The following solutions are used in this assay: 1) Buffer solution: 0.05 M sodium phosphate buffer containing 0.9% sodium chloride, pH 7.6. 2) Substrate solution: 2 mg/ml azocasein in the buffer solution mentioned above. The assay is initiated by mixing 1 ml of an appropriately diluted (such that the enzyme activity is in the range of standard curve) enzyme composition in phosphate buffer with 2 ml of azocasein substrate solution (2 mg/ml). After incubation at 37° C. for 20 minutes, the mixture is removed from the incubator and 1 ml of trichloroacetic acid to (14% w/v) is added to stop the enzyme reaction. The mixture is vortexed well and allowed to stand at room temperature for 20 minutes. After centrifuging at 2500 rpm (with a Beckman GS-6R Centrifuge) for 15 minutes, the supernatant is filtered with a serum sampler. 2 ml of the clear yellow filtrate is then adjusted to a neutral pH with 2 ml of 0.5 N sodium hydroxide and the absorbance of 440 nm wavelength light is measured with a spectrophotometer. The amount of azocasein hydrolyzed is calculated based on a standard curve of known concentrations of azocasein solution developed under identical conditions. An enzyme activity unit (“AZ U”) is defined as that amount of enzyme which hydrolyzes 1 μg of azocasein substrate/minute at 37° C. […] The trypsin or pancreatin compositions were prepared by dispersing 1.4 mL of Example 3B (wherein Me-trypsin was replaced by either trypsin or pancreatin) in 120 mL of Example 2B. The compositions were incubated at room temperature, 30° and 35° C. At the appointed time, aliquots were tested for enzyme activity by the azocasein method. Activity levels were compared with initial levels and expressed as percent remaining activity.
Substance,"% Activity Remaining (azocasein [1]; 30° C., 1 day) [%]","% Activity Remaining (azocasein [1]; 30° C., 2 days) [%]","% Activity Remaining (azocasein [1]; 30° C., 5 days) [%]","% Activity Remaining (azocasein [1]; 30° C., 7 days) [%]","% Activity Remaining (azocasein [1]; 30° C., 14 days) [%]","% Activity Remaining (azocasein [1]; RT, 1 day) [%]","% Activity Remaining (azocasein [1]; RT, 2 days) [%]","% Activity Remaining (azocasein [1]; RT, 5 days) [%]","% Activity Remaining (azocasein [1]; RT, 7 days) [%]","% Activity Remaining (azocasein [1]; RT, 14 days) [%]","% Activity Remaining (azocasein [1]; RT, 21 days) [%]","% Activity Remaining (azocasein [1]; RT, 28 days) [%]","% Activity Remaining (azocasein [1]; RT, 35 days) [%]","% Activity Remaining (azocasein [1]; RT, 42 days) [%]","% Remaining Activity (azocasein [2]; 30° C., 1 week) [%]","% Remaining Activity (azocasein [2]; 30° C., 2 weeks) [%]","% Remaining Activity (azocasein [2]; 30° C., 3 weeks) [%]","% Remaining Activity (azocasein [2]; 30° C., 4 weeks) [%]","% Remaining Activity (azocasein [2]; 30° C., 6 weeks) [%]","% Remaining Activity (azocasein [2]; 30° C., 8 weeks) [%]",further results
methyl trypsin [Me-Trypsin],99.7,97.8,96.1,93.5,91.8,100.9,100.8,97.9,99.4,100.0,98.5,96.6,96.5,94.0,97.0,97.2,91.1,90.6,85.8,83.0,"% Activity Remaining (azocasein [1]; 30° C., 21 days): 86.7%; % Activity Remaining (azocasein [1]; 30° C., 28 days): 82.7%; % Activity Remaining (azocasein [1]; 30° C., 35 days): 80.0%; % Activity Remaining (azocasein [1]; 30° C., 42 days): 76.3%; stability in a disinfecting composition over analogous compositions containing trypsin or pancreatin (azocasein [1]; summary of Table 2): superior stability; % Remaining Activity (azocasein [2]; 35° C., 1 week): 82.1%; % Remaining Activity (azocasein [2]; 35° C., 2 weeks): 75.0%; % Remaining Activity (azocasein [2]; 35° C., 3 weeks): 71.4%; % Remaining Activity (azocasein [2]; 35° C., 4 weeks): 65.2%; % Remaining Activity (azocasein [2]; 35° C., 6 weeks): 55.9%; % Remaining Activity (azocasein [2]; 35° C., 8 weeks): 50.3%; % Remaining Activity (azocasein [2]; RT, 1 week): 101.3%; % Remaining Activity (azocasein [2]; RT, 2 weeks): 99.6%; % Remaining Activity (azocasein [2]; RT, 3 weeks): 98.4%; % Remaining Activity (azocasein [2]; RT, 4 weeks): 98.1%; % Remaining Activity (azocasein [2]; RT, 6 weeks): 96.0%; % Remaining Activity (azocasein [2]; RT, 8 weeks): 96.4%"
"Trypsin [Native Trypsin, reference compound]",90.8,78.7,66.7,62.4,52.4,102.5,101.5,98.5,93.6,85.7,79.6,74.4,73.8,61.3,65.7,54.6,47.1,44.9,35.8,30.4,"% Remaining Activity (azocasein [2]; 35° C., 1 week): 30.8%; % Remaining Activity (azocasein [2]; 35° C., 2 weeks): 19.9%; % Remaining Activity (azocasein [2]; 35° C., 3 weeks): 13.3%; % Remaining Activity (azocasein [2]; 35° C., 4 weeks): 12.8%; % Remaining Activity (azocasein [2]; 35° C., 6 weeks): 8.8%; % Remaining Activity (azocasein [2]; 35° C., 8 weeks): 5.2%; % Remaining Activity (azocasein [2]; RT, 1 week): 93.5%; % Remaining Activity (azocasein [2]; RT, 2 weeks): 86.8%; % Remaining Activity (azocasein [2]; RT, 3 weeks): 82.5%; % Remaining Activity (azocasein [2]; RT, 4 weeks): 79.5%; % Remaining Activity (azocasein [2]; RT, 6 weeks): 71.0%; % Remaining Activity (azocasein [2]; RT, 8 weeks): 64.2%"
